How the values were obtained:
[1] = biological target: T1, porcine pancreatic α-amylase (porcine, UniProt P00690 16-511); assay: phage ELISA, round 4 of heat denaturation panning; VH displayed on phage; member by Table 2, column R4
T1 construct: Bought (Sigma); The source is named only for the ELISA with soluble VHs; the panning and phage ELISA paragraphs say only α-amylase; also called a-amylase
T1 sequence (looked up): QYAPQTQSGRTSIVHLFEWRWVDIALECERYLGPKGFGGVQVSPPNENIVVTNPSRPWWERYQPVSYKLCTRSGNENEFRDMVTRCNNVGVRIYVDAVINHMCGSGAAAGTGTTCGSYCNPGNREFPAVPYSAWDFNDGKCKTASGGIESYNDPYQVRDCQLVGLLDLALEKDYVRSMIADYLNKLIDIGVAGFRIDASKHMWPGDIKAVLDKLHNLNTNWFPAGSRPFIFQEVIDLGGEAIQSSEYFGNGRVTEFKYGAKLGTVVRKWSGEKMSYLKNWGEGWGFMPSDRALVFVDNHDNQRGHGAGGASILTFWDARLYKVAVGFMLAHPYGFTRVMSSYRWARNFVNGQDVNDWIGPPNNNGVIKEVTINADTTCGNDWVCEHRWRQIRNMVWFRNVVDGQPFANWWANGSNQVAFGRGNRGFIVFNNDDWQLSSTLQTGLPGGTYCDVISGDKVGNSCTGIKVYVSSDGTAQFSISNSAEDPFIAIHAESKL

[2] = biological target: T1, porcine pancreatic α-amylase; assay: told in the legend of the α-amylase inhibition figure (FIG. 10)
protein A [3] = biological target: T2, protein A (UniProt P38507 37-477); assay: SPR (Biacore 3000), protein A immobilized; KD of native VH over KD of heat-denatured/cooled VH, unfolded at 5 µM
T2 construct: Immobilized unconjugated on a CM5 chip in SPR; used as HRP conjugate in the ELISA; also called protein A/HRP conjugate; horseradish peroxidase-protein A conjugate
Experimental: (§1) Immobilizations were carried out at a protein concentration of 50 μg/mL in 10 mM acetate buffer pH 4.5 using amine coupling kit supplied by the manufacturer. AD VHs were passed though Superdex™ 75 column (GE Healthcare) and the monomeric species were collected for refolding efficiency experiments. To obtain refolding efficiency values, VHs were incubated at 85° C. for 20 min at the concentration of 0.5 and 5 μM and were cooled to room temperature for 30 min. The VHs were centrifuged at 16,000 g in a microfuge for 5 min at 22° C. to pellet and remove any possible aggregates. […] The surfaces were washed thoroughly with the running buffer for regeneration. Refolding efficiencies were calculated from the amounts bound at steady state. Data were analyzed with BIAevaluation 4.1 software.

bovine serum albumin = biological target: T3, bovine serum albumin (bovine, UniProt P02769 25-607); assay: ELISA, immobilized BSA, His6-tagged VH detected with anti-His-IgG/HRP (FIG. 9A)
T3 construct: also called BSA

[4] = biological target: T1, porcine pancreatic α-amylase; assay: ELISA, immobilized porcine pancreatic α-amylase, His6-tagged VH, anti-His-IgG/HRP
Experimental: To assess binding of VHs to a-amylase by ELISA, Maxisorp™ microtiter plates (Nunc) were coated with 100 μL of 10 μg/mL porcine pancreatic α-amylase (Sigma, Oakville, ON, Canada) in PBS overnight at 4° C. After blocking with 3% bovine serum albumin (300 μL) for 2 h at 37° C. and subsequent removal of blocking agent, 100 μL His₆-tagged VHs at concentrations of a few μM were added, followed by incubation for 2 h at 37° C. Wells were washed 5× with PBST and 100 μL rabbit anti-His-IgG/horse radish peroxidase (HRP) conjugate (Bethyl Laboratories, Inc., Montgomery, Tex.) was added at a dilution of 1:5000. The wells were then incubated for 1 h at 37° C. After washing the wells with PBST, 100 μL […] substrate (KPL, Gaithersburg, Md.) was added and the reaction, seen as color development, was stopped after 5 min by adding 100 μL of 1 M phosphoric acid. Absorbance values were measured at a wavelength of 450 nm using a microtiter plate reader. […] Assays were performed in duplicates.

protein A [5] = biological target: T2, protein A; assay: SPR (Biacore 3000), protein A immobilized; KD of native VH over KD of heat-denatured/cooled VH, unfolded at 0.5 µM
Experimental: as §1

[6] = biological target: T1, porcine pancreatic α-amylase; assay: phage ELISA, round 3 of heat denaturation panning; VH displayed on phage; member by Table 2, column R3
Experimental: For selection by heat denaturation, input phage in a multivalent display format was used (i.e., the phages were produced by using hyperphage for superinfection). The input phage was heated at 80° C. for 10 min, cooled at 4° C. for 20 min, centrifuged at maximum speed for 2 min in a microfuge and the supernatant was added to antigen-coated wells for binding. Three rounds of panning against α-amylase by the heat denaturation method were performed. A non-treatment panning was also carried out in parallel as control. […] Monoclonal Phage ELISA on single colonies was performed (Arbabi-Ghahroudi et al., 2009). ELISA-positive clones were subjected to DNA sequencing to identify their VHs (Arbabi-Ghahroudi et al., 2009). Isoelectric points, pIs, of the VHs were determined using the software Laser gene v6.0 (DNASTAR, Inc., Madison, Wis.).

T3 sequence (P02769 25-607 limits assumed): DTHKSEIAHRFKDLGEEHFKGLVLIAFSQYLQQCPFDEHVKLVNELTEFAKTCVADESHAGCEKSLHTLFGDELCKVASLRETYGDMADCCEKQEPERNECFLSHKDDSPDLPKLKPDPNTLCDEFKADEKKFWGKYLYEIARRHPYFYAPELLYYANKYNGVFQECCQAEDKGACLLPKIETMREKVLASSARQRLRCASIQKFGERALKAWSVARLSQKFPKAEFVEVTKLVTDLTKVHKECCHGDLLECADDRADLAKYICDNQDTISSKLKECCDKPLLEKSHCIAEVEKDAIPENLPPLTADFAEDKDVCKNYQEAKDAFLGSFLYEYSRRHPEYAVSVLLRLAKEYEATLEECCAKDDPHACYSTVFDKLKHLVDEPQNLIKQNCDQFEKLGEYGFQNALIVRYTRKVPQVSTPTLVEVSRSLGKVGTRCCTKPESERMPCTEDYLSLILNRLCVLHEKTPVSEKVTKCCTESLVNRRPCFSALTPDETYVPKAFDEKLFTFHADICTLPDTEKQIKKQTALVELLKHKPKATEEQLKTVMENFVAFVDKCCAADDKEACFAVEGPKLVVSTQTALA

B1: huVHAm420 (other, not shown: small tags and cut ends)
VH: QVQLVESGGGLIKPGGSLRLSCAASGDRFSYEDMAWVPQAPGKGLEWVSAISSSGGSTYYADSVKGRFTISRDNSKNTVYLQMNSLRAEDTAVYYCVATEESCPEGNCPPPRRSWGQETMVTVSS
notes: amber codon read as Glu in E. coli TG1
Q: Does B1 bind [1]?
A: binds

B2: huVHAm302 (other)
VH: QVQLVESGGGLIKPGGSLRLSCAASGDTVSDESMTWVRQAPGKGLEWVSAISSSGGSTYYADSVKGRFTISRDNSKNTVYLQMNSLRAEDTAVYYCVTDNRSCQTSLCTSTTRSWGQGTMVTVSSGSEQKLSEEDLNHHHHHH
modifications: N-terminus pyroglutamine (pyroQ)
notes: Human VH single-domain antibody, soluble with c-Myc-His6 tag, amber codon at position 32 replaced by Glu; In the phage ELISA rows the same VH stood on phage (pIII fusion)
Q: Does B2 bind [2]?
A: binds

B3: huVHAm428 (other)
VH: QVQLVESGGGLIKPGGSLRLSCAASGFSLSDDCMGWVRQAPGKGLEWVSAISSSGGSTYYADSVKGRFTISRDNSKNTVYLQMNSLRAEDTAVYYCVTGNQACKHEPWPDEALLLGPRDNVTVSS
notes: Human VH single-domain antibody, soluble, amber codon replaced by Glu; In the phage ELISA rows the same VH stood on phage (pIII fusion); not shown: C-terminal c-Myc-His6 tag from vector pSJF2H
Q: What does the source list for B3?
A: TRE (%) (ratio of KDn to KDref) (protein A [3]): 86%; binding result (bovine serum albumin): no binding; binding result [4]: binds; TRE (%) (ratio of KDn to KDref) (protein A [5]): 89%

B4: huVHAm301 (other, not shown: small tags and cut ends)
VH: QVQLVESGGGLIKPGGSLRLPCAASGFRISHEGMGWVRQAPGKGLEWVSAISSSGGSTYYADSVKGRFTISRDNSKNTAYLQMNSLRAEDTAVYYCVAYNEECTKPSCHTKARSWGQGTMVTVSS
notes: as for B1
Q: Does B4 bind [6]?
A: binds

B5: huVHAm309 (other)
VH: QVQLVESGGGLIKPGGSLRLSCAASGVNFSNEGMAWVRQAPGKGLEWVSAISSSGGSTYYADSVKGRFTISRDNSKNTVYLQMNSLRAEDTAVYYCVTAQRACANSPCPGSITSWGQETMVTVSS
notes: as for B3
Q: How did the “TRE (%) (ratio of KDn to KDref)” value (protein A [3]) turn out when B5 was run?
A: 93%

Q: Does B5 bind (bovine serum albumin)?
A: no binding

Q: Does B5 bind [4]?
A: binds

Q: What about the “TRE (%) (ratio of KDn to KDref)” value (protein A [5]) of the same binder?
A: 94%

B6: huVHAm430 (other, not shown: small tags and cut ends)
VH: QVQLVESGGGLIKPGGSLRLSCAASGDRVSPEDMAWVRQAPGKGLEWVSAISSSGGSTYYADSVKGRFTISRDNSKNTVYLQMNSLRAEDTAVYYCVTSGVPSGSFWGQETMVTVSS
notes: as for B1
Q: Does B6 bind [1]?
A: binds

B7: huVHAm315 (other)
VH: QVQLVESGGGLIKPGGSLRLSCAASGDMFSSEGMAWVRQAPGKGLEWVSAISSSGGSTYYADSVKGRFTISRDNSKNTVYLQMNSLRAEDTAVYYCVAAPTTCTSHNCAEPFRSWGQETMVTVSS
notes: as for B3
Q: Does B7 bind [6]?
A: binds

B8: huVHAm431 (other)
VH: QVQLVESGGGLIKPGGSLRLSCAASGYTVSSECMGWVRQAPGKGLEWVSAISSSGGSTYYADSVKGRFTISRDNSKNTVYLQMNSLRAEDTAVYYCVRDSKNCHDKDCTRPYCSWGQGTMVTVSS
notes: Human VH single-domain antibody, soluble; In the phage ELISA rows the same VH stood on phage (pIII fusion); not shown: C-terminal c-Myc-His6 tag from vector pSJF2H
Q: Does B8 bind [1]?
A: binds

B9: huVHAm427 (other)
VH: QVQLVESGGGLIKPGGSLRLSCAASGVTLSPECMAWVRQAPGKGLEWVSAISSSGGSTYYADSVKGRFTISRDNSKNTVYLQMNSLRAEDTAVYYCVSCEGENAFWGQGTMVTASS
notes: as for B3
Q: Does B9 bind [1]?
A: binds

B10: huVHAm311 (other, not shown: small tags and cut ends)
VH: QVQLVESGGGLIKPGGSLRLSCAASGFRVTPECMTWVRQAPGKGLEWVSAISSSGGSTYYADSVKGRFTISRDNSKNTVYLQMNSLRAEDTAVYYCVRHEVECPTEQCPFHCPSWGQGTMVTVSS
notes: as for B1
Q: Does B10 bind [6]?
A: binds

B11: huVHAm305 (other, not shown: small tags and cut ends)
VH: QVQLVESGGGLIKPGGSLRLSCAASGYRFNNEVMGWVRQAPGKGLEWVSAISSSGGSTYYADSVKGRFTISRDNSKNTVYLQMNSLRAEDTAVYYCVTSTPACNQDKCERWRPSWGQGTMVTASS
notes: as for B1
Q: Does B11 bind [6]?
A: binds

B12: huVHAm416 (other)
VH: QVQLVESGGGLIKPGGSLRLSCAASGVSFTDDCMAWVRQAPGKGLEWVSAISSSGGSTYYADSVKGRFTISRDNSKNTVYLQMNSLRAEDTAVYYCVADHTQCRQPECESQLCSWGQGTMVTVSS
notes: as for B3
Q: How did the “TRE (%) (ratio of KDn to KDref)” value (protein A [3]) turn out when B12 was run?
A: 97%

Q: Does B12 bind (bovine serum albumin)?
A: no binding

Q: Does B12 bind [4]?
A: binds

Q: And the “TRE (%) (ratio of KDn to KDref)” value (protein A [5])?
A: 100%

B13: huVHAm316 (other)
VH: QVQLVESGGGLIKPGGSLRLSCAASGDRFTYESMGWVRQAPGKGLEWVSAISSSGGSTYYADSVKGRFTISRDNSKNTVYLQMNSLRAEDTAVYYCVALETACTRPACAHTPRFWGQGTMVTVSS
notes: as for B3
Q: Does B13 bind [6]?
A: binds

B14: huVHAm303 (other, not shown: small tags and cut ends)
VH: QVQLVESGGGLIKPGGSLRLSCAASGFRFSYEVMGWVRQAPGKGLEWVSAISSSGGSTYYADSVKGRFTISRDNSKNTVYLQMNSLRAEDTAVYYCVTPKVDCETHPCRERPYFWGQGTMVTVSS
notes: as for B1
Q: Does B14 bind [6]?
A: binds

B15: huVHAm304 (other)
VH: VQLVESGGGLIEPGGSLRLSCAASGFSFSDEGMAWVRQAPGKGLEWVSAISSSGGSTYYADSVKGRFTISRDNSKNTVYLQMNSLRAEDTAVYYCVRLPKQCTSPDCETEVSSWGQRTMVTVSS
notes: Human VH single-domain antibody, soluble, amber codons replaced by Glu; In the phage ELISA rows the same VH stood on phage (pIII fusion); not shown: C-terminal c-Myc-His6 tag from vector pSJF2H
Q: Which “TRE (%) (ratio of KDn to KDref)” value (protein A [3]) does the source give for B15 here?
A: 87%

Q: Does B15 bind (bovine serum albumin)?
A: no binding

Q: What about the “TRE (%) (ratio of KDn to KDref)” value (protein A [5]) of the same binder?
A: 99%

B16: huVHAm412 (other, not shown: small tags and cut ends)
VH: QVQLVESGGGLIKPGGSLRLSCAASGDMLSAECMGWVRQAPGKGLEWVSAISSSGGSTYYADSVKGRFTISRDNSKNTVYLQMNSLRAEDTAVYYCVAKPYHCAVQGTMVTVSS
notes: as for B1
Q: Does B16 bind [1]?
A: binds

B17: huVHAm406 (other, not shown: small tags and cut ends)
VH: QVQLVESGGGLIKPGGSLRLSCAASGFSFTPECMGWVRQAPGKGLEWVSAISSSGGSTYYADSVKGRFTISRDNSKNTVYLQMNSLRAEDTAVYYCVGHKNNCPGQGTMVTVSS
notes: as for B1
Q: Does B17 bind [1]?
A: binds

— patent US20110052565A1 (NATIONAL RESEARCH COUNCIL OF CANADA, published 2011)
